Measurements reported in patent US20220041711A1 (NGM BIOPHARMACEUTICALS, published 2022).

T1: human MARCO expressed on cells (721.221-MARCO, 293T-MARCO) (human, UniProt Q9UEW3 1-520)
T1 construct: also called 721.221 cells expressing MARCO
T1 sequence: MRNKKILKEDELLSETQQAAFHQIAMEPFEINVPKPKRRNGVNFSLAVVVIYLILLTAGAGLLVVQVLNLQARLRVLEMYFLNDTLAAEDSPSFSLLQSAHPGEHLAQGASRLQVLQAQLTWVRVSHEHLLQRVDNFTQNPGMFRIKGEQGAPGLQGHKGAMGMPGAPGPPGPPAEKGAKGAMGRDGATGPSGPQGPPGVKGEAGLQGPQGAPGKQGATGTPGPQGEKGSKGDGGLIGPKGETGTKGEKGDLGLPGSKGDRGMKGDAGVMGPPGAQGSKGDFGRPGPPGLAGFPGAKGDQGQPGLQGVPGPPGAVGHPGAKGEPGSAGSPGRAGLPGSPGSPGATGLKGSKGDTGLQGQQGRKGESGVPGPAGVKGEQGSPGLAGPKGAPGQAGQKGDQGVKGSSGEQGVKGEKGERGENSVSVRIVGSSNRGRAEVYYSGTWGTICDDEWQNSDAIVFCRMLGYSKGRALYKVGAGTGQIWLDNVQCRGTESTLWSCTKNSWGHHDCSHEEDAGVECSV

T2: human MARCO (form in the assay not stated) (human, UniProt Q9UEW3 79-520, limits assumed)
T2 sequence: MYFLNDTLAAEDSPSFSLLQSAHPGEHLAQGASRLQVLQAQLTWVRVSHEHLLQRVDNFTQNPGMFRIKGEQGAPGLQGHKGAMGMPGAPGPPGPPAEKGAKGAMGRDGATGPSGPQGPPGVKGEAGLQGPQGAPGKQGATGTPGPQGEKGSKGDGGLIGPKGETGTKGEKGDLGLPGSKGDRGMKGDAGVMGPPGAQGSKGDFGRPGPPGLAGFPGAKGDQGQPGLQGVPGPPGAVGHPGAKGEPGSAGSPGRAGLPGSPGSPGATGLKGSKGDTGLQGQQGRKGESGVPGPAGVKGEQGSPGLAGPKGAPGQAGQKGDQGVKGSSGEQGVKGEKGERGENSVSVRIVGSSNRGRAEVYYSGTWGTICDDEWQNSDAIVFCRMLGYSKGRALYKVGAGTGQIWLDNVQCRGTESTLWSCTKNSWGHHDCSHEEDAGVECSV

T3: MSR1 expressed on transfected 293T cells (UniProt P21757 1-451, limits assumed)
T3 construct: whole, on cells
T3 sequence (looked up): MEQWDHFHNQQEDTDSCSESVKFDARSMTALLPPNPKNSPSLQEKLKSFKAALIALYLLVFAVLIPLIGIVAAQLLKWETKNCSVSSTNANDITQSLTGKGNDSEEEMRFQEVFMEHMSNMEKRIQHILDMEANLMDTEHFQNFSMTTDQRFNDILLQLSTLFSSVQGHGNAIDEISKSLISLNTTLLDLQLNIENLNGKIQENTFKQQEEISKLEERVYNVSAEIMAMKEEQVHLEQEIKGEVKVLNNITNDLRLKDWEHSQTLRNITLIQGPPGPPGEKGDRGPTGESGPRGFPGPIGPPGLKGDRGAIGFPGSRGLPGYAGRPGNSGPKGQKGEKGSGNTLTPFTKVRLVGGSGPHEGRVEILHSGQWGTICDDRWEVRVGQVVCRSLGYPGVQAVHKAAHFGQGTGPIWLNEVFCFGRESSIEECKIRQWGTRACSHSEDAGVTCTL

T4: collagen 17A1 (COL17A1) expressed on 721.221 cells (UniProt Q9UMD9 1-1497, limits assumed)
T4 construct: whole, on cells
T4 sequence (looked up): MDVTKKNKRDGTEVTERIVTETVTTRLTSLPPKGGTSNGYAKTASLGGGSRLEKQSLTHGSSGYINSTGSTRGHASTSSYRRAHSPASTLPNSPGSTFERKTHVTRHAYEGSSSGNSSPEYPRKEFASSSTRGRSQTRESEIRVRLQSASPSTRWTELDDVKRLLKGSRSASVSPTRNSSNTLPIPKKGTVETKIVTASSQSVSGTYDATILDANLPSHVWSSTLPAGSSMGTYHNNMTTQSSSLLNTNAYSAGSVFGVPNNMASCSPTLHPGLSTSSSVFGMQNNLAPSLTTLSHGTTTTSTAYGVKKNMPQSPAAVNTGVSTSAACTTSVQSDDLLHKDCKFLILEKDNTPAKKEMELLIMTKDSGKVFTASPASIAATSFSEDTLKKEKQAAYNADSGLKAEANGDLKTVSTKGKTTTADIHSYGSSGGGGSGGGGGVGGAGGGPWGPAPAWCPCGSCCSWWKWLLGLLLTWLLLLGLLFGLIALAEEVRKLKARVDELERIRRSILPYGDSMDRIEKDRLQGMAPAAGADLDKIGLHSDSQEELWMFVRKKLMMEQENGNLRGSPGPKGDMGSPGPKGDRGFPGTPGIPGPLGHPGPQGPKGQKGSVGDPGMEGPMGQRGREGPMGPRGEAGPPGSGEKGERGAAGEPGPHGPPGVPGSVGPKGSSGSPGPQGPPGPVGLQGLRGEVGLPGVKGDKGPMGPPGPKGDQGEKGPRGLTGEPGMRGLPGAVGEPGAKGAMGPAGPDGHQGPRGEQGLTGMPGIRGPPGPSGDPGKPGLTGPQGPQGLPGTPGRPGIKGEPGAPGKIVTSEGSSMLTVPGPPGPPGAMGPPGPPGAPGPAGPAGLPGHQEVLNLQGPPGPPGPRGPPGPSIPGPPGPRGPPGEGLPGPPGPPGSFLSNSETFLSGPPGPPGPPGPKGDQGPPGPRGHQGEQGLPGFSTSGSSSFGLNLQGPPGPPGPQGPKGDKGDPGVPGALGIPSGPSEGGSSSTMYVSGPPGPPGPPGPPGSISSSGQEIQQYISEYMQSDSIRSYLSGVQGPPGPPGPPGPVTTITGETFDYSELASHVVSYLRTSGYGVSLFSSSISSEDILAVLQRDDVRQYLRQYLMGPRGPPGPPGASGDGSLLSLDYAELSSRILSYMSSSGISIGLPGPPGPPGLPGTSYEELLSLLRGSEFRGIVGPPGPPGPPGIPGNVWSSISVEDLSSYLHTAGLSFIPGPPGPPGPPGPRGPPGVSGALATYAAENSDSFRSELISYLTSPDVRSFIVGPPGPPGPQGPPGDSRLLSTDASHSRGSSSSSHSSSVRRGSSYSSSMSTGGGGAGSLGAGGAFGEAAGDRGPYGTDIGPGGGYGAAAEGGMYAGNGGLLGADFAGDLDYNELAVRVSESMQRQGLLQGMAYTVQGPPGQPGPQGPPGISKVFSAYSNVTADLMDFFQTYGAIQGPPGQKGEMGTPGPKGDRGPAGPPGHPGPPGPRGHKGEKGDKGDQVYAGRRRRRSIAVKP

B1: anti-MARCO antibody 6D8 (antibody, mouse IgG2a, kappa)
heavy: QVQLKESGPGLVAPSQSLSIACTVSGFSLTNYAISWVRQPPGKGLEWLGVIWTGGGTNYNSTLKSRLSISKDNSKSQVFLKMNSLQTDDTARYNCARNSGDWYFDVWGPGTTVTVSSAKTTAPSVYPLAPVCGDTTGSSVTLGCLVKGYFPEPVTLTWNSGSLSSGVHTFPAVLQSDLYTLSSSVTVTSSTWPSQSITCNVAHPASSTKVDKKIEPRGPTIKPCPPCKCPAPNAAGGPSVFIFPPKIKDVLMISLSPIVTCVVVDVSEDDPDVQISWFVNNVEVHTAQTQTHREDYNSTLRVVSALPIQHQDWMSGKEFKCKVNNKDLGAPIERTISKPKGSVRAPQVYVLPPPEEEMTKKQVTLTCMVTDFMPEDIYVEWTNNGKTELNYKNTEPVLDSDGSYFMYSKLRVEKKNWVERNSYSCSVVHEGLHNHHTTKSFSRTPGK
light: DIVMSQSPSSLAVSVGEKVTMSCKSSQSLLYSSNQKNYLAWYQQKPGQSPHLLIYWASTRESGVPDRFIGSGSGTDFTLTISSVKAEDLAVYYCQQYYDYPPTFGSGTKLEIKRADAAPTVSIFPPSSEQLTSGGASVVCFLNNFYPKDINVKWKIDGSERQNGVLNSWTDQDSKDSTYSMSSTLTLTKDEYERHNSYTCEATHKTSTSPIVKSFNRNEC
notes: detected with anti-mouse IgG; copies: 2 + 2
B2: anti-MARCO antibody 10G4 (antibody, mouse IgG2a, kappa)
heavy: QVQLKESGPGLVAPSQSLSITCTVSGFSLSSYPISWVRQPPGKGLEWLGIIWTGGGTNYNSALKSRLSISKDNSKSQVFLKMNSLQTDDTARYYCASQNWDVNSALDYWGQGTSVTVSSAKTTAPSVYPLAPVCGDTTGSSVTLGCLVKGYFPEPVTLTWNSGSLSSGVHTFPAVLQSDLYTLSSSVTVTSSTWPSQSITCNVAHPASSTKVDKKIEPRGPTIKPCPPCKCPAPNAAGGPSVFIFPPKIKDVLMISLSPIVTCVVVDVSEDDPDVQISWFVNNVEVHTAQTQTHREDYNSTLRVVSALPIQHQDWMSGKEFKCKVNNKDLGAPIERTISKPKGSVRAPQVYVLPPPEEEMTKKQVTLTCMVTDFMPEDIYVEWTNNGKTELNYKNTEPVLDSDGSYFMYSKLRVEKKNWVERNSYSCSVVHEGLHNHHTTKSFSRTPGK
light: DIQMTQSPASLSVSVGETVTITCRASENIYSNLAWYQQKQGKSPQLLVYTATNLADGVPSRFSGSGSGTQYSLRINRLQSEDFGNYYCQHFWNAPWTFGGGTKLEIKRADAAPTVSIFPPSSEQLTSGGASVVCFLNNFYPKDINVKWKIDGSERQNGVLNSWTDQDSKDSTYSMSSTLTLTKDEYERHNSYTCEATHKTSTSPIVKSFNRNEC
notes: as for B1
B3: anti-MARCO antibody 15A3 (antibody, mouse IgG2a, kappa)
heavy: EIQLQQSGPELVKPGASVKVSCKASGYSFTDYNMYWVKQSHGKSLEWIGYIDPYNGGTSYNQKFKGKATLTVDKSSSTAFMHLNSLTSEDSAVYYCARLRSPYDYDRGDYVMDYWGQGTSVTVSSAKTTAPSVYPLAPVCGDTTGSSVTLGCLVKGYFPEPVTLTWNSGSLSSGVHTFPAVLQSDLYTLSSSVTVTSSTWPSQSITCNVAHPASSTKVDKKIEPRGPTIKPCPPCKCPAPNAAGGPSVFIFPPKIKDVLMISLSPIVTCVVVDVSEDDPDVQISWFVNNVEVHTAQTQTHREDYNSTLRVVSALPIQHQDWMSGKEFKCKVNNKDLGAPIERTISKPKGSVRAPQVYVLPPPEEEMTKKQVTLTCMVTDFMPEDIYVEWTNNGKTELNYKNTEPVLDSDGSYFMYSKLRVEKKNWVERNSYSCSVVHEGLHNHHTTKSFSRTPGK
light: DIVLTQSPASLAVSLGQRATISCRASKSVSTSGYTYMHWYQQKPGQPPKLLIYLASNLESGVPARFSGSGSGTDFTLNIHPVEEEDAATYYCQHSRELPLTFGAGTKLELKRADAAPTVSIFPPSSEQLTSGGASVVCFLNNFYPKDINVKWKIDGSERQNGVLNSWTDQDSKDSTYSMSSTLTLTKDEYERHNSYTCEATHKTSTSPIVKSFNRNEC
notes: as for B1

Biological target: T5, SCARA5 expressed on transfected 293T cells (UniProt Q6ZMJ2 1-495, limits assumed)
T5 construct: whole, on cells
T5 sequence (Q6ZMJ2 whole entry): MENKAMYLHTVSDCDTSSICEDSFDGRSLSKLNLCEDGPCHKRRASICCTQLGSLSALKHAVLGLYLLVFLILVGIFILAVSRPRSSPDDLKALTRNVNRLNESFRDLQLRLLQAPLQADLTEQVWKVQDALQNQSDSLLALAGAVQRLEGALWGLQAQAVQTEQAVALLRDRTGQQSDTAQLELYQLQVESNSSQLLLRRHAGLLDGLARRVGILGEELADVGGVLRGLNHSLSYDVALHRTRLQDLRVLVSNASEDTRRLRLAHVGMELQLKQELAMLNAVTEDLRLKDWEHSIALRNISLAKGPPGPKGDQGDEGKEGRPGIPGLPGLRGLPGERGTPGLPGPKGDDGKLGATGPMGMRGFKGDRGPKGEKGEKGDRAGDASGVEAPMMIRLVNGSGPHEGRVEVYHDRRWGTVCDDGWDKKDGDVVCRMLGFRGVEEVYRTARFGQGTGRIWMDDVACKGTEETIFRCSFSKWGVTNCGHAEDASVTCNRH
Experiment: flow cytometry on 293T-SCARA5 cells, Alexa647 anti-mouse IgG secondary
Description: (§1) An Alexa647-labeled anti-mouse IgG secondary antibody was added to the plates. Positive binding was measured by flow cytometry and analyzed using FlowJo software.
(§2) Binding was detected using an Alexa647-labeled anti-mouse IgG secondary antibody (Jackson ImmunoResearch). Cells were analyzed by flow cytometry on a LSRFortessa™ instrument (BD Biosciences) and using FlowJo software. Live cells were gated before analysis. The percentage of live cells bound by the antibodies in each subset (% mAb binding+) and the mean fluorescence intensity (MFI) were calculated. Non-specific background staining was determined with secondary antibody alone.

binding result | Binder
no binding (tested: 2.5 µg/mL) | B1
no binding (tested: 2.5 µg/mL) | B2
no binding (tested: 2.5 µg/mL) | B3

Biological target: T1, human MARCO expressed on cells …
Experiment: flow cytometry, antibody at 2.5 µg/mL, Alexa647 anti-mouse IgG secondary
Description: as §1, §2

binding result | Binder
binds | B1
binds | B2
binds | B3

Biological target: T2, human MARCO (form in the assay not …)
Experiment: ELISA, FACS and IHC screening

binding result | Binder
binds | B1
binds | B2
binds | B3

Biological target: T6, CD163L expressed on transfected 293T cells (UniProt Q9NR16 41-1453)
T6 construct: whole, on cells
T6 sequence (Q9NR16 41-1453): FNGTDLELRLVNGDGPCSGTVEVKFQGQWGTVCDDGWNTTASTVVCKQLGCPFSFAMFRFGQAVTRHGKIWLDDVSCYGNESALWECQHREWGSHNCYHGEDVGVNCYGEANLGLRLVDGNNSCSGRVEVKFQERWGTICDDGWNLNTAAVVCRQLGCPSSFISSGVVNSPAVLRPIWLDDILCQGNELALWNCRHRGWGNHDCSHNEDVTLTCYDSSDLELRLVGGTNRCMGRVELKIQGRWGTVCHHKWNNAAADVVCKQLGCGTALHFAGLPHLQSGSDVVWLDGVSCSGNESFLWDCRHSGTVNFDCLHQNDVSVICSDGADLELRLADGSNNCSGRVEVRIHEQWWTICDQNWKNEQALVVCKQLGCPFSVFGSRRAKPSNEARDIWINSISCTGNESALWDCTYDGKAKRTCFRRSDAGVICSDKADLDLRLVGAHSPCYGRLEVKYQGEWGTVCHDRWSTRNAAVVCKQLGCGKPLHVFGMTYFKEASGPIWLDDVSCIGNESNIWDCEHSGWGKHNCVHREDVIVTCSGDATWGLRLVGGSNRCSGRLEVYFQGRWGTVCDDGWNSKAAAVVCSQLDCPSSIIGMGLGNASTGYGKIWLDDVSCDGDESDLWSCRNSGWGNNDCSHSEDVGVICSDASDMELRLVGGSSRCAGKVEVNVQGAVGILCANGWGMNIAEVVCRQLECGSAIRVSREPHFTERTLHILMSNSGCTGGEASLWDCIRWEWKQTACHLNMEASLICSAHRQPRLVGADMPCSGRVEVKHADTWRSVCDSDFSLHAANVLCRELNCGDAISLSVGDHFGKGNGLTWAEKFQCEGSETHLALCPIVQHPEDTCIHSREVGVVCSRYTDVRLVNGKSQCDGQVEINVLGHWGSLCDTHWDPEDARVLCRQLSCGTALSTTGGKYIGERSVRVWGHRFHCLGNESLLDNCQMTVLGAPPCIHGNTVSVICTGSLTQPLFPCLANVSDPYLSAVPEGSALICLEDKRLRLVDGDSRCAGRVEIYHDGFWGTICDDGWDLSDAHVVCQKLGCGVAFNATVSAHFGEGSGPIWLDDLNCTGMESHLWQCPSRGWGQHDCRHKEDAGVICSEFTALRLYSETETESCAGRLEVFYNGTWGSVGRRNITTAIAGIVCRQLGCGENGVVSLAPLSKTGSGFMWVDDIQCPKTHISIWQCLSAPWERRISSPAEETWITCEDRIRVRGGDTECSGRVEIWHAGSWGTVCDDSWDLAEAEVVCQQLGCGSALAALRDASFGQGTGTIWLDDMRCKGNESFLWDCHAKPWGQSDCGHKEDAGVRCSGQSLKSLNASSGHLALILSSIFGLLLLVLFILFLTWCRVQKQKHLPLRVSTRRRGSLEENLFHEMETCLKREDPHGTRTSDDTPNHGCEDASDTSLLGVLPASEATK
Experiment: flow cytometry on 293T-CD163L cells, Alexa647 anti-mouse IgG secondary
Description: as §1, §2

binding result | Binder
no binding (tested: 2.5 µg/mL) | B1
no binding (tested: 2.5 µg/mL) | B2
no binding (tested: 2.5 µg/mL) | B3

Biological target: T3, MSR1 expressed on transfected 293T cells
Experiment: flow cytometry on 293T-MSR1 cells, Alexa647 anti-mouse IgG secondary
Description: as §1, §2

binding result | Binder
no binding (tested: 2.5 µg/mL) | B1
no binding (tested: 2.5 µg/mL) | B2
no binding (tested: 2.5 µg/mL) | B3

Biological target: T4, collagen 17A1 (COL17A1) expressed on …
Experiment: IHC on 721.221 stable cell lines; '-' = no detectable signal
Description: 721.221 cells were assayed using the Leica BOND RX fully automated research stainer platform. […] Samples were pre-treated with Diva Decloaker and blocked with intelliPATH FLX™ peroxidase blocking solution.

binding result | Binder
no binding | B1
no binding | B2
no binding | B3

Biological target: T7, COL13A1 expressed on transfected 293T cells (UniProt Q5TAT6 1-717, limits assumed)
T7 construct: whole, on cells
T7 sequence (Q5TAT6 whole entry): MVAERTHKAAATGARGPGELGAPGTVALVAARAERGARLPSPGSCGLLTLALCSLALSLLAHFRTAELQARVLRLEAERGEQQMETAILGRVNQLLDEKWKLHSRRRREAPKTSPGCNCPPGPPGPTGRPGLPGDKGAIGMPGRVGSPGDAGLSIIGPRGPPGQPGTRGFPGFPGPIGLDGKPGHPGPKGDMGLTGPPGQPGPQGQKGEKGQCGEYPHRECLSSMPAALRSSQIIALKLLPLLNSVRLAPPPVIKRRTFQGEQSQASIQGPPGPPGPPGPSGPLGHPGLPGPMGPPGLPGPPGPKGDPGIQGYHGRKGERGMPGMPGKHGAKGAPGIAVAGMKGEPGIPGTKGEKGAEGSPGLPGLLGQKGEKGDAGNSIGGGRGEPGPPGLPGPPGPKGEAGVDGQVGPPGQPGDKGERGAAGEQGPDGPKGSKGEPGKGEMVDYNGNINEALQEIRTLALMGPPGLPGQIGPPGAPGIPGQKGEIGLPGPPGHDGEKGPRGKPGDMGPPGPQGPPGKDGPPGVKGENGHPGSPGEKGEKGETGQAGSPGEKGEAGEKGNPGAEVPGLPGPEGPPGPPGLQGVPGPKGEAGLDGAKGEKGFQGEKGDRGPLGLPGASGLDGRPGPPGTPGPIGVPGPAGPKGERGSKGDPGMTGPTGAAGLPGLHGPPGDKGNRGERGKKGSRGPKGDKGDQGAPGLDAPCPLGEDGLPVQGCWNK
Experiment: IHC on 293T-transfected cell pellets; '-' = no detectable signal
Description: A biopsy punch was used to make cell pellet tissue microarrays, from which sections were cut and slides were prepared. […] Samples were pre-treated with Diva Decloake and blocked with intelliPATH FLX™ peroxidase blocking solution and background Punisher (Biocare Medical). […] Tissues were washed and bluing reagent (Ventana) was added.

binding result | Binder
no binding | B1
no binding | B2
no binding | B3
